Response (normalized dc/dt) and Kd data for five substances are collected here from PMC7057950.

Assay [1] concerns the target ligand binding domain of the glucocorticoid receptor, Atto488-labelled (GR-LBDm-Atto 488). The assay is described as follows: analytical ultracentrifugation. Particulars: parent: est. 0.77; read off a plot.
The target in assay [2] is yHsp90 (Saccharomyces cerevisiae) (UniProt P02829). Particulars: remark: other sources report otherwise.

pKd: −log10 of the molar value.

With “human Hsp90β, wild type (from UniProt P08238) K607E”, the response (normalized dc/dt) in assay [1] was 0.37.

Turning to “human Hsp90β, wild type (from UniProt P08238) K607A”, in assay [1], the response (normalized dc/dt) was found to be 0.58.

Regarding “human Hsp90β, wild type (from UniProt P08238) K607I”, the response (normalized dc/dt) in assay [1] came to 0.71.

Consider yHsp90, P02829, for which, in assay [2], the pKd is 7.35.

With “human Hsp90β, wild type (from UniProt P08238) K607R”, in assay [1], the response (normalized dc/dt) came out at 0.82.

The term pKd denotes the Kd on a negative log10 scale, so that one unit is a factor of ten. A high value points to a low Kd.
